Laboratory results: the supplement of paper PMC9170038

How the values were obtained:
MS2 coat protein [1] = assay: apparent KD of MS2 coat protein, switch ON state; designed switch direction (-1 OFF switch, 1 ON switch): 1; higher = weaker reporter binding; conditions: FMN input: 0 or 200 uM; Eterna round: R93 (includes R88 designs)
Procedure, shortened: (§1)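 Illumina sequencing clusters were used for on-chip transcription of designed RNA switches. Titration with SNAP-549-labelled MS2 coat protein followed, in twofold steps from 0.7 or 1.5 nM to 3 µM in 100 mM Tris-HCl pH 7.5, 80 mM KCl, 4 mM MgCl2, without or with constant ligand. Apparent KD is each design's median of fits to normalised cluster binding curves.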

MS2 coat protein [2] = assay: apparent KD of MS2 coat protein, switch OFF state (with FMN for OFF switches, without FMN for ON switches); designed switch direction (-1 OFF switch, 1 ON switch): 1; higher = weaker reporter binding; conditions: FMN input: 0 or 200 uM; Eterna round: R93 (includes R88 designs)
Procedure, shortened: as §1

Row | Sequence | apparent KD of MS2 coat protein (MS2 coat protein [1]) [nM] | apparent KD of MS2 coat protein (MS2 coat protein [2]) [nM]
1 | AAGAAACAUGAGGAUCACCCAUGUCAAGAGAGACUAGGAUAUCUGAAUUAAUUAAAUUAAGGAGAAGGAGUGAAAA [71%, Same state of confusion2, 2] | 35.9 | 88.6
2 | UGAAAGGAGAGAGAGGAUAUCCAAAGGAAAACAUGAGGAUCACCCAUGUAGAAGGUAGGAAAUUGGGAGAAGGCUCAAGAAAGAG [salish99-ss2-139] | 50.7 | 35.4
3 | AAAUAACAUGAGGAUCACCCAUGUUGCAGCGGUUGAGGAUAUGUGGGUGAAAAUAGCAUGGCAGAAGGCGAGUGUA [SameState1 Malc#26] | 71.3 | 71.9
4 | CGAAAGGAGAGAGAGGAUAUCCAAAGGAAAACAUGAGGAUCACCCAUGUAGAAGGUAGGAGAUUGGGAGAAGGCUCAAGAUAGAG [salish99-ss2-145] | 29.5 | 73.2
5 | AGAAAUAAAAGAGAGGAUAUCCUAAAGAAAACAUGAGGAUCACCCAUGUAAAAGAAAAUAAAAUGGGAGAAGGCUCAAAAUAAAG [80%, More Helter Skelter 2] | 15.4 | 39.5
6 | AAGAAAGUUUACGAGGAUAUGUUCCGCAUAACAUGAGGAUCACCCAUGUGAACAAGAAAGGCGACGCAGAAGGCGUGAGCAAAGA [Atanansori] | 26.1 | 403
7 | AACAUACAUGAGGAUCACCCAUGUUCCGGCAGGUCAGGAUAUGUAUCGAAAGAGUUAUAAACAGAAGGGACAUAAA [JR_SS001_Sub010] | 32.4 | 56.9
8 | AAAAAAUAAAAAAAGGAUAUAAAUGCUAGAACAUGAGGAUCACCCAUGUACUAGCAAAAAAUAAAAAAGAAGGAAAAAUAAAAAA [SS2: MS2 18] | 15.6 | 14.8
9 | AUAAAAUACUGUGAGGAUAUCCAUAAUAAAACAUGAGGAUCACCCAUGUGUAGAUAAUAAUAAUGGGAGAAGGCACAUAAUAAAU [SS2 M41] | 24.2 | 27.6
10 | AGAAGACAUGAGGAUCACCCAUGUGGGAAUAUGGGAGGAUAUACAAAGACGAGAGUCAGAGUAGAAGGCCUAGGCA [salish99-ss1-111] | 47 | 129
11 | AAAAAGGAGAGAGAGGAUAUCCAAAGGAAAACAUGAGGAUCACCCAUGUAAAAGGUAGGAAAUUGGGAGAAGGCUCAAGAGAGAG [salish99-ss2-107] | 17.6 | 36.5
12 | AAUCCAAAUAGUCAGGAUAUCAAAAAUAAGACAUGAGGAUCACCCAUGUACUAAGUAAAAGUAAAUGAGAAGGGACAGGGUGAAA [JR_SS002_Sub402] | 138 | 145
13 | AGAAAUAAACCGAAGGAUAUCCAAACCUAAACAUGAGGAUCACCCAUGUAAAAGAAAAUAAAAUGGGAGAAGGUCGGAAAUAAGA [Designing denovo 13] | 17.7 | 25.3
14 | UAACUACAUGAGGAUCACCCAUGUCAAAUAAAUCGAGGAUAUGGGACGCAAAACGUCUGACCAGAAGGCGAAACAA [Maquriceri] | 27.3 | 132
15 | AAGAAACAUGAGGAUCACCCAUGUGGAAAUAUGGGAGGAUAUACAAGGACGUAAGUCAAGGUAGAAGGCCUAAGAA [Mat - Same State 1 - Meechl mod - D138] | 21.5 | 134
16 | AAAGACAUGGUGCAGGAUAUAUUAAUAGUCACAUGAGGAUCACCCAUGUUCAUAUAUAUGAACGAGUAGAAGGGCGAUGAAAAAA [SameState2 Malc#6] | 98 | 90.8

Row | Sequence | apparent KD of MS2 coat protein (MS2 coat protein [1]) [nM] | apparent KD of MS2 coat protein (MS2 coat protein [2]) [nM]
17 | GGGAGGAAGAGAGAGGAUAUCCAAAGGAAAACAUGAGGAUCACCCAUGUAAAAGGUAGGAAAUUGGGAGAAGGCUCAAAAGAGGC [salish99-ss2-042] | 19.4 | 46.6
18 | AGAAAUAAAAGCUAGGAUAUCCAAAAGAAAACAUGAGGAUCACCCAUGUGAAAGAAAAUAAAAUGGGAGAAGGAGCAAAAUAAGA [Topaz 51] | 17.5 | 31
19 | AAUAUACAUGAGGAUCACCCAUGUUAGGUGGGACUAGGAUAUCAGAGUACAUAAUGAACAUGAGAAGGAGUAUCAA [JR_SS001_Sub404] | 115 | 110
20 | AAAAGGGCGACACAGGAUAUGUUGACUCUAACAUGAGGAUCACCCAUGUGCGUUUAGGGUCGUGCGCAGAAGGGUGUAGCUCGGA [Orvele] | 12.9 | 24.1
21 | AGGAGACAUGAGGAUCACCCAUGUGAGAAGAGGCGAGGAUAUCGAAAGAAAGAAGAGAAACGAGAAGGCGCGAGCG [salish99-SS1-028] | 26.7 | 34.3
22 | AAAUAAAUGACUCAGGAUAUAUCAUAGAGUACAUGAGGAUCACCCAUGUUUUAAUAACAUGUUUGGUAGAAGGGAGUCAAUAAAU [LROPPY Same State 2 - v06_deltaG=1.99] | 25.8 | 127
23 | AUAAAACAUGAGGAUCACCCAUGUAGACACGUGGGAGGAUAUACUAGAUCGAAAGAUCUAGUAGAAGGCCUUCGUA [Mat - Same State 1 - JL mod - D94] | 23.7 | 38.4
24 | UAGAGGAAGAGAGAGGAUAUCCAAAGGAAAACAUGAGGAUCACCCAUGUAAAAGGUAGGAAAUUGGGAGAAGGCUCAAGAGAGAG [salish99-ss2-062] | 30.9 | 30.3
25 | AAACCACAUGAGGAUCACCCAUGUGAAAUACACAUAGGAUAUGCGAAAAGAAACAAAGAAGCAGAAGGGUGAAAAA [75%, Ex sub1, 17] | 35.4 | 41.3
26 | AUAAAUAAAAGCGAGGAUAUCCAAAAAAAAACAUGAGGAUCACCCAUGUAAAAGAAAAUAAAAUGGGAGAAGGCGCAAAAUAAAU [SS2 M 9] | 21.2 | 7.54
27 | AGAAUAAAAACAGAGGAUAUCCAAAAGAAAACAUGAGGAUCACCCAUGUAAAAGAAAAUAAAAUGGGAGAAGGCUGAAAUAAAGA [Mat - Same State 2 - Eli mod - D97] | 14.9 | 33.2
28 | AAAAAACAUGAGGAUCACCCAUGUAAAUCUCAUGUAGGAUAUACAAAAAAAAAAAAAAAAGUAGAAGGACAAAAAA [Omei A variation 5] | 125 | 75.2
29 | AAAAAACAUGAGGAUCACCCAUGUGCAAAAUUCGCAGGAUAUUUUUUUUUUAAAUGAGAGGGAGAAGGGUGUAAAA [Nob's Hobby 22 - Jieux - Same State 1] | 27.4 | 33
30 | UGGAGACAUGAGGAUCACCCAUGUAGAAGGAUGGGAGGAUAUACAAAGACGAGAGUCAGAGUAGAAGGCCUAGGAG [salish99-ss1-188] | 31.3 | 42.8
31 | AAAAAACAUGAGGAUCACCCAUGUAAAAAAAACGCAGGAUAUCCCUUUUUUAAAUGGGAGGGAGAAGGGUGAAAAA [Nob's Hobby 13 - Jieux - Same State 1] | 22.4 | 43.8
32 | AUUCCAACUAGUCAGGAUAUCAGGCGUAAGACAUGAGGAUCACCCAUGUACUUAGUACAAGUAACUGAGAAGGGACAGGGUGUAA [JR_SS002_Sub408] | 20.3 | 25.3
